From the nanobody polyreactivity screen of Harvey et al. (2022)

test: yeast display, Sf9 membrane polyspecificity reagent, FACS + sequencing; frameworks hold sequencing errors
Summary of the method: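 Genes from sorted yeast were amplified by colony PCR, read by MiSeq 2 × 250 sequencing and filtered on CDR length. These cells carried a synthetic nanobody library in Saccharomyces cerevisiae BJ5465 and were sorted by FACS into low and high (top ~1%) gates on anti-HA and streptavidin fluorescence. Polyreactivity is labelled according to the gate of origin.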

Row | Sequence | polyreactivity (PSR sort gate)
1 | QVQLVESGGGLVQAGGSLRLSCAASGFTFWYYAMGWYRQAPGKERELVATITSGDSTKYADSVKGRFTISRDNAKNTVYLQMNSLKPEDTAVYDCAAEKVLPFIGYDYWGQGTQVTVSS | low polyreactivity
2 | QVQLVESGGGLVQAGGSLRLSCAASGLTFSYYAMGWYRQAPGKERELVAAIDYSGGTTYADSVKGRFTISRDNAKNTVYLQMNSLKPEDTAVYYCAREWYQYSPYHRFDYWGQGTQVTVSS | high polyreactivity
3 | QVQLVESGGGLVQAGGSLRLSCAASGSTIPLYAMGWYRQAPGKERELVAAISRRGGRTYYADSVKGRFTISRDNAKNTVYLQMNSLKPEDTAVYYCATAQGSRVDYWGQGTQVTVSS | high polyreactivity
4 | LVQHVESGGGIVQAGGSLRLTCAASGSIFASYAMGWYRLAPGKEREFVAAISRRSGSTYYSDSVKGRFTISRDYAKNTVYLQLKSLKPEDTAVYDCAGALYYGYDHYNYWGQGTQVTVSS | high polyreactivity
5 | QVQLVESGGGLVQAGGSLRLSCAASGFTFEVYAMGWYIQAPGKERELVAAITSSGGRTYYADSVKGRFTISRDNAKNTVYLQMNSLKPEDTAVYYCNARSKQPVYPYVQSLNYWGQGTQVTVSS | high polyreactivity
6 | QVQLVESGGGLVQAGGSLRLSCAASGSSFRSNDMGWYRQAPGKERELVARITSSVGSTYYADSVKGRFTISRDNAKNTVYLQMNSLKPEDTAVYYCAKRYYHYPYGYRDYDYWGQGTQVTVSS | low polyreactivity
7 | QVQLVESGGGLVQAGGSLRLSCAASGSTFLSNAMGWYRQAPGKERELVASIDWSGVSTYYADSVKGRFTISRDNAKNTVYLQMNSLNPEDTAVYYCAAEQVQSWDAYYQVEEYDYWGQGTQVTVSS | low polyreactivity
8 | QDQLVESGGCLVQAGGSLRLSCASSGSTFGDYAMGWYRQAPGKERELVAAISVSGASTYYADSVKGRFTISRDNAKNTVYLQMNSLKPEDTAVYYCAASYDTIGDSWGQGTQVSVSS | low polyreactivity
9 | QVQLVESGGGLVQAGGSLRLSCAASGIIFYPYAMGWYRQAPGKERELVAAISQSGGTTSYADSVKGRFTISRDNAKNTVYLQMNSLKPEDTAVYYCARRVSTRKRYYYWGQGTQVTVSS | high polyreactivity
10 | QVQLVESGGGLVQAGGSLRLSCAASGSIFDSNAKGWYRQAPGKERELVAAITGSGSTNYADSVKGRFTFSRDNAKNTVYLQMNSLKPEDTAVYYCNAQAPYTEFDYWGQGTQVTVSS | low polyreactivity
11 | QVQLVESGGGLVQAGGILRLSCAASGSTFAANAMGWYRQAPGKERELVAAITSSGGSTYYADSVKGRFTISRDNAKNTVYLQMNSLKPEDTAVYYCNKDIERYVRIYYSWGQGTQVTVSS | low polyreactivity
12 | QVQLEESGGGLVQAGGSLRLSCAASGFTFTTNAMGWYRQAPGKERELVAAISFSGGTTYYADSVKGRFTISRDNAKNTVYLQMNSLKPEDTAVYYCAAQPGQAWWSTDHDDYWGQGTQVSVSS | low polyreactivity
13 | QVQLVESGGGLVQAGGSLRLSCGASGSIFNKYAIGWYRQAPGKERELVAAISVSGTRTYYADSVKGRFTISRDNAKNTCYLQMNSLKPEDTAVYYCAATRLDSTGSMYYYWGQGTQVTVSS | high polyreactivity
14 | QVQLVESGGGLVQAGGSLRLSCAASGLNIRYYAMGWYRQAPGKERELVAAISYNGGSTYYADSVKGRFTISRDNAKNTVYLQMNSLKPEDTAVYYCAARLYGRYGYWGQGTQVTVSS | high polyreactivity
15 | QVQLEESGGGLVQAGGSLRLSCAASGITYYYAMGWYRQAPGKERELVAVITPGVSTNYADSVKGRFTISRDNAKNSVYLHMNSLKPEDTAVYYCATDVQVPCIGRSVYAYEYWGQGTQVTVSS | low polyreactivity
16 | QDQDVESGGGLVQARGSLPLSCAASGSIFAWYAMGWYRQSPGKERELLAVITSSDGSTHYADSVKGRFTISRDNAKNSVYLQMISLKPEDTAVYYCAAFRSLRESKGYWWEYYSWGQGTQVTVSS | low polyreactivity
17 | QVQLGESGGGLLQAGGSLRLSCAASGRISSQYAMGLYRQAPWKERELFAAISTSGDRTYYADSVKGRFTISRDNAKNTVYLQMNSLKPEDTAVYYCAKEGPYTYGRDIYEYWGQGTQVTVSS | low polyreactivity
18 | QVQLVESGGVLVQAGGSLRLSCAASGFTFAYYAMGWYRQAPGKVRELVASITRSGGSTYYADSVKGRFTLSRDNAKNTVYLQMNSLKPEDTAVYYCAARYGLVRDVIPYDYWGQGTQVTVSS | high polyreactivity
19 | QVQLVESGGGLVQAGGSLRLTCAASGFIFVRNAMGWYRQAPGKERDLVAAISSRGGRTYYADSVKGRFTISRDNAKYTVYLQMNRLKPEDTAVYYCNADRDTQGDGYDYWGQGTQVTVSS | high polyreactivity
20 | QVQLVESGGGLVQAGGSLRLSCAASGFIFYYYTMGWYRQEPGKEREFVAAITYSGGRTYYADSVKGRFTISRDNAKNTVYLQMNSLKPEDTAVYYCAVALFETGHYYWGQGTQVTVSS | high polyreactivity
21 | QVQLVESGGGLVQAGGSLRLSCAASGRSFGTNAMVSYIQAPGKEREFVAAIRKSGATTYYADSVKGRFTISRDNAKNTVYLQMNSLKPDDTAVYYCAADFFYYGKWYSGYYWGQGTQVTVSS | high polyreactivity
